Tested on: Escherichia coli TOP10
Assay: shrunken log2 fold change of peptide-encoding DNA abundance (4.5 h post-induction vs induction); higher = less antimicrobial activity (less host growth inhibition)
Conditions: time post-induction: 4.5 h; library: site-saturation at positions 5, 18, 19, 20
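Also: peptides expressed intracellularly from a pBAD plasmid library in pooled LB shake-flask culture, induced with 0.3% L-arabinose, DNA abundance read by NGS, three biological replicates, DESeq2 with apeglm shrinkage.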

Sequence | shrunken log2 fold change
RRIRHRPPRLPRPRPRPPVQPRP | -0.0798
RRIRHRPPRLPRPRPRPPWGPRP | 0.347
RRIRHRPPRLPRPRPRPPYHPRP | -0.495
RRIRHRPPRLPRPRPRPPYKPRP | -0.31
RRIRHRPPRLPRPRPRPPYNPRP | -0.642
RRIRHRPPRLPRPRPRPPYQPRP | -0.028
RRIRHRPPRLPRPRPRPPYWPRP | 1.65
RRIRHRPPRLPRPRPRPQAQPRP | -0.208
RRIRHRPPRLPRPRPRPQCPPRP | -0.211
RRIRHRPPRLPRPRPRPQCSPRP | -0.0894
RRIRHRPPRLPRPRPRPQDNPRP | -0.144
RRIRHRPPRLPRPRPRPQDPPRP | 0.0646
RRIRHRPPRLPRPRPRPQGHPRP | -0.268
RRIRHRPPRLPRPRPRPQGLPRP | -0.247
RRIRHRPPRLPRPRPRPQHAPRP | 0.0729
RRIRHRPPRLPRPRPRPQKLPRP | -0.52
RRIRHRPPRLPRPRPRPQLFPRP | -0.172
RRIRHRPPRLPRPRPRPQLNPRP | -0.593
RRIRHRPPRLPRPRPRPQLQPRP | 0.0457
RRIRHRPPRLPRPRPRPQMPPRP | -0.232
RRIRHRPPRLPRPRPRPQMQPRP | -0.0236
RRIRHRPPRLPRPRPRPQNDPRP | 0.0173

Sequence | shrunken log2 fold change
RRIRHRPPRLPRPRPRPQNEPRP | -0.133
RRIRHRPPRLPRPRPRPQNGPRP | -0.535
RRIRHRPPRLPRPRPRPQNLPRP | -0.00783
RRIRHRPPRLPRPRPRPQNQPRP | -0.563
RRIRHRPPRLPRPRPRPQNVPRP | -0.0702
RRIRHRPPRLPRPRPRPQPSPRP | 0.111
RRIRHRPPRLPRPRPRPQRAPRP | 0.205
RRIRHRPPRLPRPRPRPQRCPRP | -0.00202
RRIRHRPPRLPRPRPRPQSPPRP | 0.0863
RRIRHRPPRLPRPRPRPQSSPRP | -0.0152
RRIRHRPPRLPRPRPRPQVHPRP | -0.213
RRIRHRPPRLPRPRPRPQWRPRP | 0.324
RRIRHRPPRLPRPRPRPQWWPRP | -0.0314
RRIRHRPPRLPRPRPRPQYIPRP | -0.621
RRIRHRPPRLPRPRPRPRACPRP | 0.0227
RRIRHRPPRLPRPRPRPRAEPRP | 0.12
RRIRHRPPRLPRPRPRPRAYPRP | -0.411
RRIRHRPPRLPRPRPRPRCWPRP | 0.145
RRIRHRPPRLPRPRPRPRFFPRP | 0.152
RRIRHRPPRLPRPRPRPRFKPRP | -0.153
RRIRHRPPRLPRPRPRPRGHPRP | -0.103
RRIRHRPPRLPRPRPRPRHKPRP | -0.556

Sequence | shrunken log2 fold change
RRIRHRPPRLPRPRPRPRHQPRP | 0.0252
RRIRHRPPRLPRPRPRPRKDPRP | -0.0956
RRIRHRPPRLPRPRPRPRLPPRP | 0.131
RRIRHRPPRLPRPRPRPRMRPRP | 0.39
RRIRHRPPRLPRPRPRPRMTPRP | 0.19
RRIRHRPPRLPRPRPRPRMWPRP | -0.237
RRIRHRPPRLPRPRPRPRNEPRP | -0.588
RRIRHRPPRLPRPRPRPRNMPRP | -0.65
RRIRHRPPRLPRPRPRPRPEPRP | -0.165
RRIRHRPPRLPRPRPRPRPWPRP | 0.0732
RRIRHRPPRLPRPRPRPRQHPRP | 0.0285
RRIRHRPPRLPRPRPRPRQNPRP | 0.0341
RRIRHRPPRLPRPRPRPRRAPRP | 0.21
RRIRHRPPRLPRPRPRPRSWPRP | 0.129
RRIRHRPPRLPRPRPRPRTAPRP | 0.264
RRIRHRPPRLPRPRPRPRTCPRP | -0.0538
RRIRHRPPRLPRPRPRPRVGPRP | 0.371
RRIRHRPPRLPRPRPRPRVYPRP | -0.0307
RRIRHRPPRLPRPRPRPRYWPRP | 0.319
RRIRHRPPRLPRPRPRPSAPPRP | -0.239
RRIRHRPPRLPRPRPRPSCFPRP | -0.257
RRIRHRPPRLPRPRPRPSCIPRP | -0.265

Sequence | shrunken log2 fold change
RRIRHRPPRLPRPRPRPSCQPRP | -0.31
RRIRHRPPRLPRPRPRPSCTPRP | -0.263
RRIRHRPPRLPRPRPRPSETPRP | -0.0359
RRIRHRPPRLPRPRPRPSEVPRP | -0.277
RRIRHRPPRLPRPRPRPSFCPRP | -0.507
RRIRHRPPRLPRPRPRPSGGPRP | -0.0256
RRIRHRPPRLPRPRPRPSHAPRP | 0.0238
RRIRHRPPRLPRPRPRPSMEPRP | -0.424
RRIRHRPPRLPRPRPRPSMGPRP | -0.149
RRIRHRPPRLPRPRPRPSNCPRP | -0.337
RRIRHRPPRLPRPRPRPSNDPRP | -0.849
RRIRHRPPRLPRPRPRPSPIPRP | -0.175
RRIRHRPPRLPRPRPRPSPLPRP | -0.223
RRIRHRPPRLPRPRPRPSPPPRP | -0.0717
RRIRHRPPRLPRPRPRPSRTPRP | 0.138
RRIRHRPPRLPRPRPRPSTCPRP | -0.0299
RRIRHRPPRLPRPRPRPSTHPRP | -0.564
RRIRHRPPRLPRPRPRPSVLPRP | -0.242
RRIRHRPPRLPRPRPRPSVWPRP | -0.151
RRIRHRPPRLPRPRPRPSWFPRP | -0.408
RRIRHRPPRLPRPRPRPSWRPRP | -0.0493
RRIRHRPPRLPRPRPRPSWSPRP | -0.235

Sequence | shrunken log2 fold change
RRIRHRPPRLPRPRPRPTCTPRP | 0.141
RRIRHRPPRLPRPRPRPTDDPRP | 0.0853
RRIRHRPPRLPRPRPRPTDMPRP | 0.151
RRIRHRPPRLPRPRPRPTEKPRP | 0.0288
RRIRHRPPRLPRPRPRPTERPRP | 0.18
RRIRHRPPRLPRPRPRPTEYPRP | -0.301
RRIRHRPPRLPRPRPRPTLAPRP | 0.382
RRIRHRPPRLPRPRPRPTLHPRP | 0.0488
RRIRHRPPRLPRPRPRPTPRPRP | 0.609
RRIRHRPPRLPRPRPRPTPTPRP | 0.138
RRIRHRPPRLPRPRPRPTRSPRP | -0.0409
RRIRHRPPRLPRPRPRPTRTPRP | 0.365
RRIRHRPPRLPRPRPRPTTFPRP | 0.0797
RRIRHRPPRLPRPRPRPTTSPRP | -0.146
RRIRHRPPRLPRPRPRPTYLPRP | -0.133
RRIRHRPPRLPRPRPRPVACPRP | 0.00664
RRIRHRPPRLPRPRPRPVFTPRP | -0.392
RRIRHRPPRLPRPRPRPVGCPRP | 0.0698
RRIRHRPPRLPRPRPRPVGEPRP | 0.053
RRIRHRPPRLPRPRPRPVHYPRP | -0.495
RRIRHRPPRLPRPRPRPVIEPRP | -0.0264

From the supplement of paper PMC9112550, “Optimization of the antimicrobial peptide Bac7 by deep mutational scanning” (BMC Biology, 2022)
